# What was measured:
# [1] = molecular target: human Toll-like receptor 5 on HEK293^TLR5 reporter cells (human) (UniProt O60602)
# [2] = molecular target: rTLR5^N14-Avitag, biotinylated (zebrafish | hagfish) (UniProt B3DIN1); experiment: ELISA; competitive binding assay: 96-well plates coated with 0.2 μg/ml bsflagellin in PBS; serially diluted soluble flagellin and 0.02 μg/ml biotinylated rTLR5^N14-Avitag incubated together for 48 hours at 4 °C in 1% BSA in PBS-T; detected with HRP-streptavidin
# [3] = molecular target: rTLR5^N14, tag-free (zebrafish TLR5 LRRNT-LRR14 fused to the C-terminal fragment of hagfish variable lymphocyte receptor) (zebrafish | hagfish) (UniProt B3DIN1); experiment: native gel or EMSA; purified flagellin and rTLR5^N14 incubated at 18 °C for 30 minutes; native PAGE on 6% polyacrylamide gels at room temperature for 1.5 hours at 100 V
# [4] = molecular target: rTLR5^N14, tag-free (zebrafish TLR5 LRRNT-LRR14 fused to the C-terminal fragment of hagfish variable lymphocyte receptor) (zebrafish | hagfish) (UniProt B3DIN1); experiment: SEC; purified flagellin and rTLR5^N14 incubated at 18 °C for 30 minutes; Superdex 200 10/300 column; elution monitored at 222 nm
# [5] = molecular target: human Toll-like receptor 5 on HEK293^TLR5 reporter cells (human) (UniProt O60602); remark: listed apart in the source
# [6] = molecular target: human Toll-like receptor 5 on HEK293^TLR5 reporter cells (human) (UniProt O60602); remark: listed apart in the source
# [7] = molecular target: rTLR5^N14, tag-free (zebrafish TLR5 LRRNT-LRR14 fused to the C-terminal fragment of hagfish variable lymphocyte receptor) (zebrafish | hagfish) (UniProt B3DIN1); experiment: crystal structure; bsflagellin^cent-rTLR5^N14 complex, 2.1 Å; crystallised in 17.5% (w/v) PEG 300, 50 mM sodium acetate, pH 4.4 at 18 °C
# Sequence of UniProt O60602 (O60602 21-858): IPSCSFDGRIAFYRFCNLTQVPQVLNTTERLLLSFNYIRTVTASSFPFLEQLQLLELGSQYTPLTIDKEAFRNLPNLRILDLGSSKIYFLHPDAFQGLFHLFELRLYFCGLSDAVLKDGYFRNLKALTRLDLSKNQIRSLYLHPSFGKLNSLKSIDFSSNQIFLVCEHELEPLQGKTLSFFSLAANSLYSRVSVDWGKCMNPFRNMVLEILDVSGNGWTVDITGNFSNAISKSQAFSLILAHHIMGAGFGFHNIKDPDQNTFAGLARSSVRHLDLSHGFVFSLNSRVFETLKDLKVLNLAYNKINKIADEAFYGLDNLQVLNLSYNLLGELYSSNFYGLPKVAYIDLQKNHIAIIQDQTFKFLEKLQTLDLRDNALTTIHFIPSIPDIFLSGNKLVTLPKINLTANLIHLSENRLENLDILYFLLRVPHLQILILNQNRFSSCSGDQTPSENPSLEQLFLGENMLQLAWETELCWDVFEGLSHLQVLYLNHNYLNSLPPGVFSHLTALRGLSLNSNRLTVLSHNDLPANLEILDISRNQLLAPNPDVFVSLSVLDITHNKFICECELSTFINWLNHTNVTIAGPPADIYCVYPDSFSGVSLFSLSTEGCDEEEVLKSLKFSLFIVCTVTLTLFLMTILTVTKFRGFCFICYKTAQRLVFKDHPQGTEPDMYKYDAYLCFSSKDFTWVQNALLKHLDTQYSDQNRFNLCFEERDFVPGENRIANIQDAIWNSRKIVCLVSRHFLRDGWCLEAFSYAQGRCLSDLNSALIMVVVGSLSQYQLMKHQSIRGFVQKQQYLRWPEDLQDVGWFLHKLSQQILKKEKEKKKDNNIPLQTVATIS
Substance,EC50 (pM) for TLR5 signaling; NF-κB-inducible SEAP reporter in HEK293^TLR5 cells [1],IC50 [2],further results
"Bacillus subtilis flagellin (Hag), full-length wild type (from UniProt P02968 1-304) (natural protein)",1.18 pM,0.204 nM,stoichiometry N [3]: 1; stoichiometry N [4]: 1
"Escherichia coli flagellin, full length (from UniProt P04949 1-498) (natural protein)",1.13 pM,0.517 nM,–
"Pseudomonas aeruginosa flagellin, full length (from UniProt P21184 1-394) (natural protein)",1.68 pM,0.673 nM,–
"Salmonella enterica subspecies enterica serovar Dublin flagellin, full length (from UniProt Q06971 1-505) (natural protein)",0.57 pM,0.289 nM,–
"Shigella flexneri flagellin, full length (from UniProt Q08860 1-550) (natural protein)",1.57 pM,0.414 nM,–
bsflagellin E114A mutant (from UniProt P02968 1-304) (natural protein),–,–,"TLR5 activity in the HEK293^TLR5 reporter cell assay, fold reduction against bsflagellin^WT [5]: 6 fold"
bsflagellin L93A mutant (from UniProt P02968 1-304) (natural protein),–,–,"TLR5 activity in the HEK293^TLR5 reporter cell assay, fold reduction against bsflagellin^WT [5]: 2 fold"
bsflagellin R89A mutant (from UniProt P02968 1-304) (natural protein),–,–,"fold lower activity in the competitive rTLR5^N14-binding assay [2]: 10 fold; HEK293^TLR5 reporter cell activity, fold change of EC50 against bsflagellin^WT [6]: 49 fold"
central region of bsflagellin (bsflagellin^cent; D1 residues 54-230) (from UniProt P02968 54-230) (domain or fragment),–,–,stoichiometry N [7]: 1

# — publication PMC5247705
